Results reported in patent publication US12493026B2, “Tissue engineered 3D models for cancer metastasis” (The Board of Trustees of the Leland Stanford Junior …, priority 2019, dated 2025).

Tests used:
hMSC-derived osteoblasts = experiment: Osteoblast cell proliferation/survival in 3D coculture (bioluminescence imaging); format: cell-based, human; conditions: 1 μg/mL PTH for 6 hours every 48 hours, FIG. 8(A)
Description: (§1) Cocultures of MDA-MB-231 and tissue engineered bone were developed as previously described. Upon starting the coculture, scaffolds were treated with 1 μg/mL of parathyroid hormone (PTH) or PBS control for 6 hours every 48 hours. Breast cancer cell invasion into tissue-engineered bone was monitored using fluorescence microscopy every other day for 7 days. Bone mineralization was monitored using X-ray microcomputed tomography (GE CT120) with setting of 100 kV X-ray voltage, 500 μA current, 50 μm voxel resolution and continuous 360° rotation scanning. Reconstructed 3D μCT images were analyzed for changes in bone mineral density using Parallax Microview. Osteoblast cell proliferation was tracked over the culture period using bioluminescence imaging.

tissue engineered bone [1] = experiment: Breast cancer-induced bone resorption in 3D tri-culture model of osteoclasts, osteoblasts and breast cancer cells (μCT); format: cell-based; conditions: 14 days
Description: In order to assess the effect of breast cancer in promoting osteoclast activation and bone resorption, the bone mineral density of (1) tissue engineered bone alone (No BrCa), (2) tissue engineered bone+MDA-MB-231 breast cancer cells, and (3) tissue engineered bone+MCF-7 breast cancer cells were evaluated. Tissue engineered bone was developed as described previously. After 28 days in osteogenic media, a 2 mm diameter disk was cut out from the center of tissue engineered bone, leaving an empty hole in the center. Prior to introducing breast cancer cells, 1 million osteoclasts were seeded directly over tissue engineered bone and incubated for 1 hour to allow cells to attach. […] Bone mineralization was monitored using X-ray microcomputed tomography (GE CT120) with setting of 100 kV X-ray voltage, 500 μA current, 50 μm voxel resolution and continuous 360° rotation scanning. Reconstructed 3D μCT images were analyzed for changes in bone mineral density using Parallax Microview.
Validation was performed of a 3D tri-culture model that includes osteoclasts, osteoblasts, and breast cancer cells to mimic clinical outcomes effects of parathyroid hormone treatment on breast cancer patients.
Compared to the bi-culture model earlier (osteoblasts+breast cancer cells), this tri-culture model involves additional osteoclasts seeded on top of the scaffolds. […]

tissue engineered bone [2] = experiment: Bone mineral density of tissue engineered bone in 3D coculture (μCT); format: cell-based, human; conditions: 1 μg/mL PTH for 6 hours every 48 hours, FIG. 8(C)
Description: Bone mineral density was evaluated over 14 days by comparing tissue engineered bone cultured with (+BrCa) and without (−BrCa) breast cancer cells. Cocultures of tissue engineered bone with MDA-MB-231 were generated as described previously and cultured in EMEM GM for 14 days. Bone mineralization was monitored using X-ray microcomputed tomography (GE CT120) with setting of 100 kV X-ray voltage, 500 μA current, 50 μm voxel resolution and continuous 360° rotation scanning. Reconstructed 3D μCT images will be analyzed for changes in bone mineral density using Parallax Microview.
as §1

[3] = test system: breast cancer cell-bone metastasis; conditions: mouse models; cited from earlier work
[4] = test system: MDA-MB-231 breast cancer cells; experiment: Breast cancer cell invasion into tissue engineered bone in spatially patterned 3D coculture (fluorescence imaging); format: cell-based; conditions: 1 μg/mL PTH for 6 hours every 48 hours; MDA-MB-231 coculture, 7 days; FIG. 7(A)
Excerpt: To mimic the microanatomical structures of breast cancer invasion into bone through bone marrow/long bone interface (FIGS. 1A and 1B), a “doughnut shape” 3D co-culture model was developed with mesenchymal stem cell (MSC)-formed tissue engineered bone in the outside ring, and breast cancer cells in the center (FIG. 1C). To facilitate imaging the two cell populations, human MSCs were fluorescently labelled red and breast cancer cells were labeled green (GFP). Gelatin μRBs were synthesized as previously reported. Freeze-dried μRBs were rehydrated in PBS containing 0.05% lithium phenyl-2,4,6-trimethylbenzoylphosphinate photoinitiator. […] Breast cancer invasion into tissue engineered bone was monitored using fluorescence imaging at the interface between the outer and inner disks.
as §1, with “Upon starting the coculture, scaffolds were treated with 1 μg/mL of parathyroid hormone (PTH) or PBS control for 6 hours every 48 hours.” left out, “Osteoblast cell proliferation was tracked over the culture period using bioluminescence imaging.” left out

[5] = test system: MDA-MB-231 breast cancer cells; experiment: Breast cancer cell proliferation in 3D coculture (bioluminescence imaging); format: cell-based; conditions: 1 μg/mL PTH for 6 hours every 48 hours, FIG. 7(B)
Excerpt: To evaluate the effect of breast cancer cell aggressiveness in their invasion rate into bone, MDA-MB-231 breast cancer cells (more aggressive) were compared to MCF-7 breast cancer cells (less aggressive). Tissue engineered bone was generated as described previously. MDA-MB-231 and MCF-7 breast cancer cells were encapsulated into gelatin μRBs forming 2 mm diameter disks, which were introduced into the center of tissue-engineered bone and placed in EMEM growth media for 7 days. Breast cancer invasion into all groups was performed using fluorescence imaging at the interface between the outer and inner disks over 7 days. Cell proliferation was tracked over the culture period using bioluminescence imaging.
as §1, with “Osteoblast cell proliferation was tracked over the culture period using bioluminescence imaging.” left out

B1: parathyroid hormone (protein, UniProt P01270 32-115, looked up)
Parathyroid hormone: SVSEIQLMHNLGKHLNSMERVEWLRKKLQDVHNFVALGAPLAPRDAGSQRPRKKEDNVLVESHEKSLGEADKADVNVLTKAKSQ
modifications: Parathyroid hormone
notes: parathyroid hormone; drug that reduces breast cancer-bone metastasis in vivo
With B1 the “osteoblast cell survival in the presence of breast cancer invasion” value (hMSC-derived osteoblasts) was “enhances”, the “breast cancer-induced bone resorption (bone loss)” value (tissue engineered bone [1]; continuous PTH treatment (cPTH)) was “does not reduce” and the “breast cancer-induced bone resorption (bone loss)” value (tissue engineered bone [1]; intermittent PTH treatment (iPTH)) was “can reduce”. For the same molecule, the “breast cancer cell-induced reduction in bone mineralization (bone mineral density)” value (tissue engineered bone [2]) was “prevents”, the “breast cancer cell-bone metastasis” value [3] was “specifically reduce” and the “breast cancer cell invasion into tissue engineered bone” value [4] was “significantly reduces”. The “breast cancer cell proliferation” value [5] was “does not impact”.
